From patent US20230340147A1 (published 2023)
“And” between values parts separate entries of the source, which are not always exact repeats. Equal values may be shown once. Ends that are not written are not given here. * marks the point of attachment. G0F = octasaccharide N-glycan with alpha-1,6 core fucose (Formula Ib, linkages Formula Ic), CC(=O)N[C@@H]1[C@@H](O)[C@H](O[C@@H]2O[C@H](CO)[C@@H](O[C@@H]3O[C@H](CO[C@H]4O[C@H](CO)[C@@H](O)[C@H](O)[C@@H]4O[C@@H]4O[C@H](CO)[C@@H](O)[C@H](O)[C@H]4NC(C)=O)[C@@H](O)[C@H](O[C@H]4O[C@H](CO)[C@@H](O)[C@H](O)[C@@H]4O[C@@H]4O[C@H](CO)[C@@H](O)[C@H](O)[C@H]4NC(C)=O)[C@@H]3O)[C@H](O)[C@H]2NC(C)=O)[C@@H](CO[C@@H]2O[C@@H](C)[C@@H](O)[C@@H](O)[C@@H]2O)O[C@H]1*

T1: PSA(67-79)-G0F (human, also: Asn3 N-glycosylated with octasaccharide carrying alpha-1,6 core fucose (G0F))
T1 construct: Synthetic glycopeptide (3.9 kDa as SPR analyte), made on Sieber Amide resin; For the ELISAs a biotinylated form was used (glutamic acid derivative with a PEG3-biotin side chain at the N-terminus); also called PSA(67-79)-GOF; glycopeptide of Formula Ib
T1 peptide: IRN(G0F)KSVILLGRHS-NH2

T2: Fucosylated PSA disaccharide glycopeptide (DP) (human, not fully specified (residue 3, C-terminus))
T2 construct: also called glycopeptide of Formula IV
T2 peptide: IRNKSVILLGRHS


Experiments:
[1] = biological target: PSA in formalin-fixed, paraffin-embedded (FFPE) prostate tissue (human) (UniProt P07288); assay: IHC on FFPE tumor tissue array (Tour of Tumor), prostate core
[2] = biological target: T1, PSA(67-79)-G0F; assay: SPR, Biacore 8k, 37 C, antibody captured by anti-rabbit Fc, peptide as analyte, Langmuir fit
Description: (§1) 30 μg/ml of a Fcγ-fragment binding, polyclonal goat anti-Rabbit IgG (GARb-Fcγ, Jackson Laboratories) in 10 mM sodium acetate buffer (pH 4.5) was pre-concentrated in all 16 flow cells, and up to 10000 RU GARb-Fcγ were immobilized according to the manufacturer's instructions using EDC/NHS chemistry. Rabbit IgG antibody (150 kDa) containing rabbit B-cell primary cell culture supernatants were diluted three-fold with sample buffer and were captured for 2 min under a flow rate of 5 μl/min on 8 sample flow cells. The antibody Capture Level (CL) was quantified in response units (RU) for each antibody.
(§2) The non fucosylated peptide analyte PSA(67-79)-G2 (3.7 kDa) and the fucosylated peptide analyte PSA(67-79)-GOF (3.9 kDa) were diluted in sample buffer in concentration series of 0 nM (buffer), 11 nM, 33 nM, 100 nM, 300 nM, and 900 nM. The 100 nM analyte samples were injected twice as control. The analytes were injected at 30 μl/min for 3 min association time. After the association phase of the 900 nM analyte injection a report point (Binding Late) was set to quantify the signal response at antibody ligand saturation. The antibody antigen dissociation was monitored for 5 min. The GARb-Fcγ antibody capture system was regenerated by injection of 10 mM glycine pH 2 at 30 μl/min for 1 min, followed by two consecutive 1 min injections of 10 mM glycine pH 2.25 at 30 μl/min. Overlay plots of concentration dependent antigen binding were generated and kinetic rates were determined with the Biacore 8k evaluation software using a Langmuir fitting model with RMAX local. The antibody/antigen complex half-life was calculated in minutes according to the formula t_{1/2 diss}=ln(2)/60*kd.

[3] = biological target: T1, PSA(67-79)-G0F; assay: Hit-ELISA, biotinylated peptide on streptavidin plate, supernatant of recombinant expression
Description: Subsequently Hit-ELISA (i.e. ELISAs testing the binding to the screening agents) was used to identify B-cells expressing antibodies having desired binding characteristics, i.e. binding the PSA(67-79)-GOF peptide and capable of discriminating from PSA(67-79)-G2 and Asn-GOF. Biotinylated screening agents PSA(67-79)-GOF, PSA(67-79)-G2 and Asn-GOF were immobilized on the surface of streptavidin-coated 96-well plates (Nunc) by incubation of 100 μl per well of 100 ng/ml solutions for 60 min at room temperature, respectively. The plates were washed and 30 μl of rabbit B-cell culture supernatant was transferred to each well and incubated for 1 h at room temperature. For the detection of antibodies bound to the screening agents, HRP-labeled F(ab′)₂ goat anti-rabbit Fcγ (Dianova) and ABTS substrate solution (Roche) were used according to manufacturer's instructions. 16 clones were identified that bound to PSA(67-79)-GOF and discriminated from the negative screening agents according to the selected cut-offs (OD>0.6 in positive screening and <0.6 in negative screening). The 16 clones were selected for subsequent molecular cloning and recombinant expression as also described in Seeber et al., PLoS One 9(2014), issue 2, e86184. For 15 out of the 16 clones the sequences could be successfully cloned and the sequences encoding VH and VL could be unambiguously determined. The Hit-ELISA using the screening agents was then repeated with the supernatant of the recombinant expression and the more stringent cut-off criteria (OD>1 for positive screening agent and OD at/below average background signal for negative screening agents) were fulfilled for all 15 previously selected clones for which unambiguous VH and VL sequences were retrieved.

[4] = biological target: T1, PSA(67-79)-G0F; assay: SPR, Biacore 8k, 37 C, antibody captured by anti-rabbit Fc, peptide as analyte
Description: as §1, §2
Molar Ratio (MR) indicating antibody-antigen binding stoichiometry was also determined and calculated as MR=(analyte Binding Late (RU)/antibody Capture Level (RU)) x (MW(antibody)/MW (analyte)).

[5] = biological target: T2, Fucosylated PSA disaccharide …; assay: IHC peptide inhibition, antibody pre-incubated with peptide
Description: FIG. 8. Inhibition of anti-1,6fucPSA antibody binding by fucosylated PSA disaccharide glycopeptide (DP) in IHC analysis of FFPE samples of prostate adenocarcinoma samples. From top to bottom rows, exemplary anti-1,6fucPSA antibodies, FIG. 8A: 2E9, 3B10, and 3H6 at 2.5 μg/ml, 2.5 μg/ml, and 2.5 μg/ml, respectively; FIG. 8B: 13C5, 2H9, and 2C11 at 3 μg/ml, 2.5 μg/ml, and 1 μg/ml, respectively. For FIG. 8A and FIG. 8B, antibodies were pre-incubated with, from left to right columns, PBS buffer (control) or DP at 5×10⁻⁹ M, 5×10⁻⁸ M, 5×10⁻⁷ M, 5×10⁻⁶ M, or 5×10⁻⁵ M.
To verify that anti-1,6fucPSA antibodies recognize specifically and selectively the core-fucosylated PSA epitope, staining specificity was tested by peptide inhibition analysis.

[6] = biological target: T1, PSA(67-79)-G0F; assay: SPR, Biacore 8k, 37 C, antibody captured by anti-rabbit Fc, 900 nM peptide injection
Description: as §1, §2

Chain of PSA in formalin-fixed, paraffin-embedded (FFPE) prostate tissue (human) (P07288 25-261 limits assumed): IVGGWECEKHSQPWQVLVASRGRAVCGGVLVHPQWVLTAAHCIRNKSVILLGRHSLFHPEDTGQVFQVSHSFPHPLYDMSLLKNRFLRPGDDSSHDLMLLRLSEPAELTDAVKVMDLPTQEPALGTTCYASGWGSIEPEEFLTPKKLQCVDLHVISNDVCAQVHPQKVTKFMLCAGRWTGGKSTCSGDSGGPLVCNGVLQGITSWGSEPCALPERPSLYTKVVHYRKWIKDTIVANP

| Molecule | IHC staining intensity [1] | Kd [2] [nM] | koff [2] [s⁻¹] | kon [2] [M⁻¹ s⁻¹] | t/2diss [2] [min] | OD [3] [OD] | MR (Molar Ratio) [4] | peptide concentration giving complete inhibition [5] [µM] | BL (Binding Late) [6] [RU] |
| --- | --- | --- | --- | --- | --- | --- | --- | --- | --- |
| anti-PSA mouse monoclonal antibody ER-PR8 | 3 + and 3.5 + |  |  |  |  |  |  |  |  |
| 2E9 (antibody, V domains shown, Rabbit monoclonal IgG (150 kDa); also called anti-1,6fucPSA antibody 2E9) VH: QSLEESGGDLVKPGASLTLTCTASGFSFSAGYDMCWVRQAPGKGLEWIACIYADGSGSTYYANWAKGRFTISLASSTTVTLQMTGLTAADTATYFCAREGADGPDYGYAAFSLWGPGTLVTVSS VL: DVVMTQTPASVEAAVGGTVTIKCQASQSISNYFSWYQQKPGQPPKLLIYKASTLASGVPSRFKGSGSGTEFTLTISDLECADAATYYCQSFYGSVTSDYGGFAFGGGTEVVVK | 3.5 + and 3.25 + | 0.6 | 0.00112 | 1.75e+06 | 10 | > 1 | 2 | 5 | 27 |
| 2C11 (antibody, V domains shown, Rabbit monoclonal IgG (150 kDa); also called anti-1,6fucPSA antibody 2C11) VH: QSLEESGGGLVKPGGTLTLTCKASGFSFGPGYDMCWVRQAPGKGLEWIACIYADGSDNTYYASWARGRFTISKTSSTTVTLQMTRLTAADTATYFCAREGADNPNYGYAALRLWGPGTLVTVSS VL: DIVMTQTPASVEAPVGGTVTIKCQASESISSYLAWYQQKPGQPPKLLIYKTSTLASGVPSRFKGSGSGTEFTLTISDLECANAATYYCQSFYGSVSSDYGGFAFGGGTEVVVK | 3 + and 2.5 + | 1 | 0.00078 | 779000 | 15 | > 1 | 1 | 5 | 53 |
| 2H9 (antibody, V domains shown, Rabbit monoclonal IgG (150 kDa); also called anti-1,6fucPSA antibody 2H9) VH: QSLEESGGDLVKPGASLTLTCTASGFSFSSGYDMCWVRQAPGKGPEWIACIYADGSGSTYYASWAKGRFTISMTSSTTVTLQMTRLTAADTATYFCAREGADDPNYGYAALRLWGPGTLVTVSS VL: DIVMTQTPASVEAAVGGTVTIKCQASQSISNYLAWYQQKPGQPPKLLIYKTSTLASGVPSRFKGSGSGTEFTLTISDLECADAATYYCQSFYGSVSSDYGGFAFGGGTEVVVK | 3 + and 2.75 + | 2 | 0.00105 | 578000 | 11 | > 1 | 2 | 5 | 54 |
| 13C5 (antibody, V domains shown, Rabbit monoclonal IgG (150 kDa); also called anti-1,6fucPSA antibody 13C5) VH: QSLEESGGDLVKPGASLTLTCTASGFSFSSGYDMCWVRQAPGKGLEWIGCIYADGSGTTYYATWAKGRFTISNPSATTVTLQMTRLTAADTATYFCAREGADNPNYGYAALRLWGPGTLVTVSS VL: DIVMTQTPASVSGAVGGTITIKCQASQSISNYFSWYQQKPGQPPKLLIYKTSTLASGVPSRFKGSGSGTEFTLTISDLECADAATYYCQSFWGSGSSDYGGFAFGGGTEVVVK | 3.5 + and 3 + | 0.4 | 0.00038 | 981000 | 31 | > 1 | 2 | 5 | 29 |
| 3H6 (antibody, V domains shown, Rabbit monoclonal IgG (150 kDa); also called anti-1,6fucPSA antibody 3H6) VH: QSLEESGGDLVKPGASLTLTCTASGFSFSSGYDMCWVRQAPGKGLEWIACIYADGSGSTYYASWAKGRFTISKPSSTTVTLQMTRLTAADTATYFCAREGADGPDYGYAAFSLWGPGTLVTVSS VL: DIVMTQTPASVEAAVGGTVTIKCQASQTISSYFSWYQQKPGQPPKLLIYKASSLASGVPSRFKGSGSGTQFTLTISDLECADAATYYCQSFYGSVSSDVGGFAFGGGTEVVVK | 3.25 + and 3 + | 4 | 0.00536 | 1.52e+06 | 2 | > 1 | 1 | 5 | 25 |
| 3B10 (antibody, V domains shown, Rabbit monoclonal IgG (150 kDa); also called anti-1,6fucPSA antibody 3B10) VH: QSLEESGGGLVKPGGTLTLTCKASGFSFSSGYDMCWVRQAPGKGLEWIACIYADGSDNTYYASWAKGRFTISKTSSTTVTLQMTRLTAADTATYFCAREGADNPNYGYAALRLWGPGTLVTVSS VL: DIVMTQTPASVEAPVGGTVTIKCQATQSISSYLSWYQQKPGQPPKLLIYKTSTLASGVPSRFKGSGSGTEFTLTISDLECANAATYYCQSYYGSISSDYGGFAFGGGTEVVVK | 3 + and 2.5 + | 11 | 0.0121 | 1.14e+06 | 1 | > 1 | 1 | 5 | 31 |
